Source: publication PMC12433258, “Binding Differences of the Peptide‐Substrate–Binding Domain of Collagen Prolyl 4‐Hydroxylases I and II for Proline‐ and Hydroxyproline‐Rich Peptides” (Proteins, 2025)

B1: PPG‐PPG‐PPG peptide (peptide)
peptide: PPGPPGPPG
notes: collagen-like model peptide, 9 residues, free amino and free carboxylate ends; also called (PPG)3; source: synthetic peptide; bought: TAG Copenhagen A/S
B2: PPG‐PAG‐PPG peptide (peptide)
peptide: PPGPAGPPG
notes: collagen-like model peptide, 9 residues, free amino and free carboxylate ends; also called PxGP‐peptide; source: synthetic peptide; bought: TAG Copenhagen A/S
B3: PPG‐PEG‐PPG peptide (peptide)
peptide: PPGPEGPPG
notes: as for B2
B4: PPG‐PRG‐PPG peptide (peptide)
peptide: PPGPRGPPG
notes: as for B2
B5: (Pro)9 peptide (peptide)
peptide: PPPPPPPPP
notes: polyproline peptide of 9 residues, free amino and free carboxylate ends; printed as (Pro)9; also called P9; source: synthetic peptide; bought: TAG Copenhagen A/S
B6: PSB‐I^144–244 construct (longer PSB‐I construct of human C‐P4H‐I α‐subunit) (domain or fragment)
chain: FLTAEDCFELGKVAYTEADYYHTELWMEQALRQLDEGEISTIDKVSVLDYLSYAVYQQGDLDKALLLTKKLLELDPEHQRANGNLKYFEYIMAKEKDVNKSLEHHHHHH
notes: numbers count on: the mature protein (α-I subunit after cleavage of the signal peptide); C-terminal Leu-Glu-(His)6 tag; The C-terminal Leu-Glu-His6 tag is kept and is written as a part, not under tags; also called longer PSB‐I^144–244 variant

biological target: T1, PSB‐I^143–238 construct (peptide‐substrate–binding domain of the α‐I subunit of human collagen prolyl … (human, UniProt P13674 160-255)); test: ITC; 3 mM peptide titrated into 50 μM PSB‐I^143–238 in the cell; 20 mM Bis‐Tris, 100 mM glycine, pH 6.8; 25°C; one‐set‐of‐sites model with fixed stoichiometry (n = 1); three measurements; conditions: both partners purified
T1 construct: numbers count on: the mature protein (α-I subunit after cleavage of the signal peptide); Monomer by SEC-MALS; also called PSB‐I construct; PSB‐I domain; source: E. coli Rosetta(DE3)pLysS, pET22b(+), purified (Ni‐NTA, Superdex75 SEC); not shown: Leu-Glu-His6, C-terminal, kept
T1 sequence (P13674 160-255): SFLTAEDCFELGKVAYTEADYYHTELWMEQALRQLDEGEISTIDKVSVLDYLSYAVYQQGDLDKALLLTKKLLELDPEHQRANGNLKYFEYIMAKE

First: B1
Second: B2
The Kd of the first is 3.4-fold higher: 309 µM for the first, 91.3 µM for the second. The second binds more tightly here.

Going from B3 to B4, the Kd falls from 84.3 µM to 37 µM (2.3-fold). The second binds more tightly here.

B5 was tested, and the Kd was 80.9 µM.

Compared with B1, B2 is higher in dH: -13.6 kcal/mol for the first, -12.4 kcal/mol for the second.

Compared with B3, B4 is lower in dH: -13.2 kcal/mol for the first, -14.9 kcal/mol for the second.

B5 was tested, and the dH was -9.5 kcal/mol.

Biological target: the molecule itself
Test: crystal structure; PSB‐I^144–244 crystallized without peptide, hanging drop, 4°C; 1 M sodium citrate, 0.1 M CHES, pH 9.5; contact between crystallographically related chains
Conditions: not given

B6: binds.
